Experiments:
Cdh1 [1] = target: Cdh1 (UniProt P53197); assay: FLAG-bead in vitro Co-IP, immunoblot; details: reference: wild type FLAG-Set1; sites S228
Cdh1 [2] = target: Cdh1 (UniProt P53197); assay: FLAG-bead in vitro Co-IP after Cla4; details: reference: wild type FLAG-Set1, Cla4-treated; sites S228

Substance	binding against the reference (Cdh1 [1])	binding against the reference (Cdh1 [2])
Set1 (from UniProt P38827) FLAG-Set1-S228A	stronger	–
Set1 (from UniProt P38827) FLAG-Set1-S228A, Cla4-treated	–	stronger

Reference: publication PMC10541012
